To fix the notation:
B1: TPR t1 (parent)
chain: GACCAAUCUGCCCUCAGAGCUCGAGAACAUCUUCGGAUGCAGAGGAGGCAGGCUUCGGUGGCGCGAUAGCGCCAACGUCCUCAACCUCCAAUGCAUCCCACCACAUGAUGAUGCCUGAAGAGCCUUGGUUUUUUG

We go through 84 variants from the RNAGym collection of RNA variant scans (doi:10.1073/pnas.2313332121).

The variants in this data set derive from B1. Put plainly: polymerase ribozyme fitness, log enrichment relative to wild type (log ratio); higher = more active; in vitro selection for triplet polymerase activity. The method in brief:
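Each subunit of a heterodimeric triplet polymerase ribozyme was represented by a PCR-built, transcribed mutant library that underwent triplicate single-round in vitro selection with frozen incubation at −7 °C. Extended constructs were recovered by gel excision, streptavidin-bead capture and RT-PCR, and Illumina sequencing of input and output libraries kept genotypes with ≥10 input reads and ≥1 read per output. Fitness is the logarithm of genotype enrichment relative to wild-type enrichment, from inverse-variance-weighted replicate averages, with a logarithm base of 2.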
Consider C28A G71C C89G A121U C124A, for which the “polymerase ribozyme fitness (log ratio)” value was -5.37. In the case of A27C U32C G39A C98G it was -7.35; in that of A27U C76U A100U G120C, -3.8. Consider A27G C49G C64U, for which the “polymerase ribozyme fitness (log ratio)” value was -2.51.

Consider A24U C56A G60A C123U U125A, for which the “polymerase ribozyme fitness (log ratio)” value is -5.92.

In the case of A24U U38A C72U C80G C99U, the “polymerase ribozyme fitness (log ratio)” value was -7.56. In the case of C28U C72A it was -2.49; in that of G25U G61U, -5.8.

As to A26U G52U C94G C114A, the “polymerase ribozyme fitness (log ratio)” value is -7.17. For G25U A46G the value was -6.02; for A27U C94G C99G C104U G110U C114G, -6.8; for A27G C98A, -7.76. For the variant A27U A46G, the “polymerase ribozyme fitness (log ratio)” value is -2.59. For A26U C53U C56U the value was -3.75; for C28U C56U C101U G120U, -2.65; for A24G G120U, -1.65. C28U C40A C124U U130A: the “polymerase ribozyme fitness (log ratio)” value is -3.36. Consider C28G G44C G52U C73A G110A, for which the “polymerase ribozyme fitness (log ratio)” value is -2.09. Consider C28G A50U, for which the “polymerase ribozyme fitness (log ratio)” value is -4.17. Take A27U C88U C102A: the “polymerase ribozyme fitness (log ratio)” value is -5.16.

Consider C28A G61C, for which the “polymerase ribozyme fitness (log ratio)” value was -5.18.

Consider A26U C53U C56G A100C, for which the “polymerase ribozyme fitness (log ratio)” value is -5.42. Consider A26G A74C C88A C115U, for which the “polymerase ribozyme fitness (log ratio)” value is -2.88. As for A24G G57A U78C C101A, the “polymerase ribozyme fitness (log ratio)” value is -4.85.

Regarding A24G G58U G61C, the “polymerase ribozyme fitness (log ratio)” value is -1.68.

G25C C70A: the “polymerase ribozyme fitness (log ratio)” value was -7.32. As for A27U G135C, the “polymerase ribozyme fitness (log ratio)” value was -3.11. On to A27U C124U, for which the “polymerase ribozyme fitness (log ratio)” value is -0.949. Take C28G U32C: the “polymerase ribozyme fitness (log ratio)” value is -2.94. In the case of A26U U130A, the “polymerase ribozyme fitness (log ratio)” value was -3.88. Take A27G C56G U81A C94A G122A C123A U131A: the “polymerase ribozyme fitness (log ratio)” value is -5.75. Regarding A24U C28G A84C G120U, the “polymerase ribozyme fitness (log ratio)” value is -7.73. For A26U A83C, the “polymerase ribozyme fitness (log ratio)” value was -3.24. As for A27G G36U G42C G120A, the “polymerase ribozyme fitness (log ratio)” value was -5.26. Turning to C28G U96A, the “polymerase ribozyme fitness (log ratio)” value is -3.94. As for C28A G60A, the “polymerase ribozyme fitness (log ratio)” value was -2.44. As to A26U G39C G47A C82A A118U, the “polymerase ribozyme fitness (log ratio)” value was -4.78.

Consider A27U C62U, for which the “polymerase ribozyme fitness (log ratio)” value is -3.58.

For G25A C40U G69C G93C C101U C104G C115U A118G, the “polymerase ribozyme fitness (log ratio)” value is -7.63. A27G G69C A90C: the “polymerase ribozyme fitness (log ratio)” value was -4.21. As for G25A C56A, the “polymerase ribozyme fitness (log ratio)” value was -5.23.

In the case of A26U C49U, the “polymerase ribozyme fitness (log ratio)” value was -3.62. For A26U G51A C64U A91U G120A C124G, the “polymerase ribozyme fitness (log ratio)” value was -6.85. Consider A26C G61U U78C C80U A83G U116G, for which the “polymerase ribozyme fitness (log ratio)” value was -6.77. In the case of A26U C72A U129A it was -4.07; in that of C28U C86A, -2.8; in that of A26U U87G, -2.62. As to G25C A83C C94G A103U C124G U125C, the “polymerase ribozyme fitness (log ratio)” value was -8.57. Consider C28G G45U G52A G107C U109A C124A, for which the “polymerase ribozyme fitness (log ratio)” value was -5.94. On to C28U C49A G113C, for which the “polymerase ribozyme fitness (log ratio)” value was -3.97. For A24G U81A the value was -2.64; for A27G G45U A46C C49U C124A G128A, -5.34; for A27U C28G G110C, -4. In the case of A27G A46U G57C U81A A83C C104A G117C G122A it was -7.94; in that of C28G A111U, -2.62. In the case of A27G G48U it was -2.47; in that of C28A A46U G77C A121C, -4.52. As to A27G G71A C72U A95G, the “polymerase ribozyme fitness (log ratio)” value is -4. As for A26G C70G, the “polymerase ribozyme fitness (log ratio)” value is -3.51. In the case of A27G C72U C101A C104A it was -4.48; in that of G25A A26G A46U G63A A118C G120A, -5.5; in that of A24G U55G C64U, -1.64. For A26U G60U U78C the value was -3.09. A26G G36U C82G: the “polymerase ribozyme fitness (log ratio)” value is -4.05. As to A26C C53U U54A G60U, the “polymerase ribozyme fitness (log ratio)” value was -5.26. For G25C G61C U92G G117U, the “polymerase ribozyme fitness (log ratio)” value was -6.32. In the case of A26G G45A U78G C124U U129G, the “polymerase ribozyme fitness (log ratio)” value was -4.5. For A24G G45C, the “polymerase ribozyme fitness (log ratio)” value is -3.46. As to C28G G107C U109G, the “polymerase ribozyme fitness (log ratio)” value is -6.09.

Take A26U G93U: the “polymerase ribozyme fitness (log ratio)” value is -3.09. For the variant A26U U96A U116G A121G, the “polymerase ribozyme fitness (log ratio)” value is -3.67. Consider A27C G51A C76G, for which the “polymerase ribozyme fitness (log ratio)” value is -5.75. For the variant A24G G48A C64G A108U A121C, the “polymerase ribozyme fitness (log ratio)” value is -6.51. Turning to G25A C62A C86U C102U G120C, the “polymerase ribozyme fitness (log ratio)” value is -7.36.

With G25A G60U G117A, the “polymerase ribozyme fitness (log ratio)” value was -7.98. As to A27G C115A, the “polymerase ribozyme fitness (log ratio)” value is -3.25. For C28A C72G C123U U125C the value was -4.42.

Regarding A24U U112A, the “polymerase ribozyme fitness (log ratio)” value is -4.52. Consider C28A A83U, for which the “polymerase ribozyme fitness (log ratio)” value is -2.16. For A27C C53G the value was -2.64; for A27G C104A, -2.31; for C28U C62A C124G U133G, -2.2. In the case of A27G C34U, the “polymerase ribozyme fitness (log ratio)” value is -4.85. As to A26U G71C U131A, the “polymerase ribozyme fitness (log ratio)” value was -4.6.
